# Test results from patent US11253617B2, “One step 64Cu-BaBaSar-RGD2 production method” (UNIVERSITY OF SOUTHERN CALIFORNIA, priority 2017, dated 2022).
# Values joined by “and” are separate entries in the source; they are usually repeats but may differ in a detail not shown here. Equal entries are not always repeated. Where two headings read alike, the source gives them in different places.
# Key:
# [1] = PET/CT biodistribution in macaque monkey; type: in vivo; conditions: for tissue uptake dose: monkey, iv, total radioactivity
# Procedure: FIG. 4: Decay-corrected anterior maximum-intensity projections of PET/CT at 1, 5, 10, 20, 40, 60, 120, and 180 min after injection of ^64Cu-BaBaSar-RGD2 in macaque monkey.
# (§1) The PET images at 1, 5, 10, 20, 40, 60, 120, and 180 min after injection are disclosed in FIG. 4. […] The bladder content was visualized at 10 min after injection and more and more activity was accumulated in urine bladder content. […] Gallbladder uptake was not observed during the whole scan. […] The urinary bladder had the highest uptake, with 51.37%±8.73% of injected activity at 1 h post injection. The maximum uptake for the liver, and kidneys were 37.40±6.63% ID (9 min) and 26.79±4.35% ID (0.5 min) respectively.
# [2] = Vital signs after injection in macaque monkey; type: in vivo; conditions: 13.1-19.7 MBq/kg, during and 24-h after PET scan
# Procedure: as §1
# [3] = in vitro and in vivo, reference 23; cited from earlier work
# [4] = Estimated human absorbed doses (Olinda/EXM) from PET biodistribution in macaque monkey; type: in vivo
# Procedure: as §1
# The mean organ doses for the human phantom were calculated with Olinda/EXM using ^64Cu-BaBaSar-RGD2 biodistribution in monkey (Table 2). The kidneys had the highest radiation-absorbed doses (108.43 μGy/MBq), followed by the bladder wall (87.07 μGy/MBq). The mean effective dose of ^64Cu-BaBaSar-RGD2 was 15.30±2.21 μSv/MBq. […] The estimated doses for […] were higher by 18% because body and organ sizes of women are smaller than those men (data not shown).
# Integrin αvβ3-targeted radiopharmaceutical ^64Cu-BaBaSar-RGD2 has been successfully synthesized with the one-step kit method. The straightforward method greatly simplifies the production process and benefits the clinical application of ^64Cu-BaBaSar-RGD2. Human radiation dosimetry of ^64Cu-BaBaSar-RGD2 was estimated after intravenous administration in macaque monkey, by PET imaging and OLINDA/EXM calculations. The critical organs were kidneys and urinary bladder wall. The mean effective dose, determined with the male adult model, was […]. […] Therefore, ^64Cu-BaBaSar-RGD2 can safely be used in human scan for further evaluation of its performance as an integrin-targeting probe.
# [5] = system: U87MG glioblastoma tumor; conditions: cited from earlier work
# [6] = Blood clearance from venous blood samples during PET scan; type: in vivo, monkey
# Procedure: Venous blood samples were withdrawn from monkey during the PET scan. […] At 22 h after injection, the activity in the blood decreased to 0.79±0.52% ID. Based on the percentage of injected dose in blood sample, the half life of ^64Cu-BaBaSar-RGD2 in blood pool was calculated as 12.1±4.0 min (n=3).
# [7] = reference 24; cited from earlier work
# [8] = human phantom, Olinda/EXM, monkey biodistribution, Mean ± SD
# [9] = male human phantom, Olinda/EXM, monkey biodistribution, Mean ± SD
compound,measurement,setting,value
"N=C(N)NCCC[C@@H]1NC(=O)[C@H](CCCCNC(=O)c2ccc(CNC34CNCCNCC(NCc5ccc(C(=O)NCCCC[C@@H]6NC(=O)[C@@H](Cc7ccc(O)cc7)NC(=O)[C@H](CC(=O)O)NC(=O)CNC(=O)[C@H](CCCNC(=N)N)NC6=O)cc5)(CNCCNC3)CNCCNC4)cc2)NC(=O)[C@@H](Cc2ccc(O)cc2)NC(=O)[C@H](CC(=O)O)NC(=O)CNC1=O [^64Cu-BaBaSar-RGD2, metal not drawn]",Urinary bladder uptake,"[1]; 1 h post injection, bladder not voided (anesthesia)",51.37%±8.73%
same,"Activity in gallbladder, small intestine, upper and lower large intestine",[1]; 3 h post injection,8.62%±1.41%
same,Gallbladder uptake,[1]; during the whole scan,not observed
same,tissue uptake dose,"[1]; kidneys, at 0.5 min, read-out: Maximum uptake for the kidneys",26.8 ± 4.35 %ID
same,tissue uptake dose,"[1]; liver, at 9 min, read-out: Maximum uptake for the liver",37.4 ± 6.63 %ID
same,"Effects on vital signs (blood pressure, pulse, electrocardiogram)",[2],no observable effects on vital signs
same,Stability,[3],great stability both in vitro and in vivo
same,Effective dose for the non-voiding model,[4]; 925-MBq administrated into human subject,14.2 mSv
same,"Mean effective dose, male adult model","[4]; OLINDA/EXM, intravenous administration in macaque monkey",15.30±2.21 Sv/MBq
same,"Estimated doses for the female human, higher than male by",[4]; female versus male human phantom,18%
same,"Estimated human absorbed dose, Ovaries",[4]; [8],2.88 ± 0.44 μGy/MBq
same,"Estimated human absorbed dose, Uterus",[4]; [8],4.16 ± 0.63 μGy/MBq
same,Effective Dose (mean),[4]; [9],15.30±2.21 μSv/MBq
same,"Estimated human absorbed dose, Adrenals",[4]; [9],3.34 ± 0.52 μGy/MBq
same,"Estimated human absorbed dose, Brain",[4]; [9],1.27 ± 0.22 μGy/MBq
same,"Estimated human absorbed dose, Breasts",[4]; [9],1.34 ± 0.23 μGy/MBq
same,"Estimated human absorbed dose, Gall bladder Wall",[4]; [9],3.07 ± 0.49 μGy/MBq
same,"Estimated human absorbed dose, Heart Wall",[4]; [9],4.39 ± 0.62 μGy/MBq
same,"Estimated human absorbed dose, Kidneys",[4]; [9],108.43 μGy/MBq and 108.43 ± 16.41 μGy/MBq
same,"Estimated human absorbed dose, LLI Wall",[4]; [9],2.86 ± 0.44 μGy/MBq
same,"Estimated human absorbed dose, Liver",[4]; [9],7.54 ± 1.15 μGy/MBq
same,"Estimated human absorbed dose, Lungs",[4]; [9],1.67 ± 0.28 μGy/MBq
same,"Estimated human absorbed dose, Muscle",[4]; [9],1.88 ± 0.31 μGy/MBq
same,"Estimated human absorbed dose, Osteogenic Cells",[4]; [9],7.01 ± 0.91 μGy/MBq
same,"Estimated human absorbed dose, Pancreas",[4]; [9],2.86 ± 0.45 μGy/MBq
same,"Estimated human absorbed dose, Red Marrow",[4]; [9],9.29 ± 1.02 μGy/MBq
same,"Estimated human absorbed dose, Skin",[4]; [9],1.38 ± 0.24 μGy/MBq
same,"Estimated human absorbed dose, Small Intestine",[4]; [9],4.53 ± 0.68 μGy/MBq
same,"Estimated human absorbed dose, Spleen",[4]; [9],6.78 ± 0.88 μGy/MBq
same,"Estimated human absorbed dose, Stomach Wall",[4]; [9],2.11 ± 0.34 μGy/MBq
same,"Estimated human absorbed dose, Testes",[4]; [9],2.03 ± 0.33 μGy/MBq
same,"Estimated human absorbed dose, Thymus",[4]; [9],1.56 ± 0.26 μGy/MBq
same,"Estimated human absorbed dose, Thyroid",[4]; [9],1.39 ± 0.24 μGy/MBq
same,"Estimated human absorbed dose, Total Body",[4]; [9],2.76 ± 0.42 μGy/MBq
same,"Estimated human absorbed dose, ULI Wall",[4]; [9],2.47 ± 0.39 μGy/MBq
same,"Estimated human absorbed dose, Urinary Bladder Wall",[4]; [9],87.07 μGy/MBq and 87.07 ± 12.38 μGy/MBq
same,Tumor uptake,"[5]; U87MG glioblastoma tumor bearing mice, reference 23",high tumor uptake
same,Normal organ uptake,"[5]; mouse, in vivo",low normal organ uptake
same,Activity remaining in blood,"[6]; 3 h after injection, decay corrected",2.88±0.88 % ID
same,Activity remaining in blood (range),"[6]; 3 h after injection, range",2.07-3.82 % ID
same,Activity in the blood,[6]; 22 h after injection,0.79±0.52 % ID
same,Clearance from the blood,[6]; decay corrected activity per unit of blood sample,cleared rapidly from the blood
"OC[C@H]1OC(O)[C@H]([18F])[C@@H](O)[C@@H]1O (stereo partly drawn) [^18F-FDG, 2-deoxy-2-[^18F]fluoro-D-glucose]",Estimated dose in a whole-body PET scan,[7],6.23 mSv
